# Patent US20240132578A1
# Columns and labels:
# Test in all cases: cell-based or functional assay
# [1] = biological target: HIV-1 MGRM-AG-012 Env (pseudovirus) (HIV-1)
# [2] = biological target: HIV-1 MGRM-G-006 Env (pseudovirus) (HIV-1)
# [3] = biological target: HIV-1 Env of isolate MGRM-Chronic-B-002, clade B (HIV-1)
# [4] = biological target: HIV-1 MGRM-D-018 Env (HIV-1)
# [5] = biological target: HIV-1 Env of isolate MGRM-A-009 (clade A pseudovirus) (HIV-1)
# [6] = biological target: HIV-1 Env of isolate 94UG103 (Clade A) (HIV-1)
# [7] = biological target: HIV-1 94UG103 envelope (Env) on pseudovirus (HIV-1)
# [8] = biological target: HIV-1 Env of isolate 92TH021 (CRF01_AE) (HIV-1)
# [9] = biological target: HIV-1 Env of isolate 92RW008 (clade A pseudovirus) (HIV-1)
# [10] = biological target: HIV-1 APV-17 envelope (Env) on pseudovirus (HIV-1)
# [11] = biological target: HIV-1 envelope glycoprotein (Env) of isolate MGRM-C-023 (HIV-1)
# [12] = biological target: HIV-1 MGRM-AE-008 Env (pseudovirus) (HIV-1)
# [13] = biological target: HIV-1 envelope glycoprotein (Env) of isolate VLGCA1, subtype A (HIV-1)
# [14] = biological target: HIV-1 envelope glycoprotein (Env) of isolate MGRM-Chronic-B-017, on pseudovirus (HIV-1)
# [15] = biological target: HIV-1 Env of isolate MGRM-F1-015 (pseudovirus) (HIV-1)
# [16] = biological target: HIV-1 envelope glycoprotein (Env) of isolate VLGCB3, on pseudovirus (HIV-1)
# [17] = biological target: HIV-1 envelope glycoprotein (Env) of isolate MGRM-Chronic-B-002, on pseudovirus (HIV-1)
# [18] = biological target: HIV-1 envelope glycoprotein (Env) of isolate MG RM-A-013, subtype A (HIV-1)
# [19] = biological target: HIV-1 envelope glycoprotein (Env) of isolate MGRM-Chronic-B-020, on pseudovirus (HIV-1)
# [20] = biological target: HIV-1 envelope glycoprotein (Env) of isolate MG RM-A-008, subtype A (HIV-1)
# [21] = biological target: HIV-1 JR-CSF Env I423A (I4234 in the source) (HIV-1 (isolate JR-CSF)) (UniProt P20871)
# [22] = biological target: HIV-1 JR-CSF Env I307A (HIV-1 (isolate JR-CSF, clade B)) (UniProt P20871)
# [23] = biological target: HIV-1 JR-CSF Env E466A (HIV-1 (isolate JR-CSF)) (UniProt P20871)
# [24] = biological target: HIV-1 Env of pseudovirus isolate 93TH305 (clade B) (HIV-1)
# [25] = biological target: HIV-1 Env of pseudovirus isolate 92BR020 (clade B) (HIV-1)
# [26] = biological target: HIV-1 Env of isolate MGRM-D-008 (HIV-1)
# [27] = biological target: HIV-1 Env of isolate 98CN009 (HIV-1)
# [28] = biological target: HIV-1 Env of isolate MGRM-C-015 (subtype C), on pseudovirus (HIV-1)
# [29] = biological target: HIV-1 JR-CSF Env T303A (HIV-1 (isolate JR-CSF, clade B)) (UniProt P20871)
Substance,"IC50, pseudovirus neutralization [4]","IC50, pseudovirus neutralization [13]","IC50, pseudovirus neutralization [14]","IC50 (µg/mL), pseudovirus neutralization [15]","IC50, pseudovirus neutralization [16]","IC50, pseudovirus neutralization [17]","IC50, pseudovirus neutralization [18]","IC50, pseudovirus neutralization [19]","IC50, pseudovirus neutralization [20]","IC50, pseudovirus neutralization [24]","IC50, pseudovirus neutralization [25]","IC50 (µg/mL), pseudovirus neutralization [26]","IC50 (µg/mL), pseudovirus neutralization [27]","IC50, single-round pseudovirus neutralization [28]",further results
1496_C09 (PG9) (TCN-109) (antibody),2.04 µg/mL,,,,,,,,,,,,,,"IC50 (µg/ml), pseudovirus neutralization [1]: 1.37 µg/mL; IC50 (µg/ml), pseudovirus neutralization [2]: 0.51 µg/mL; IC50 (µg/ml), pseudovirus neutralization [3]: 1.41 µg/mL; IC50 (µg/ml), pseudovirus neutralization [5]: 0.03 µg/mL; IC90 (neutralization of pseudovirus) [6]: 3.37 µg/mL; neutralization IC50 [7]: 0.173 µg/mL; IC90 (neutralization of pseudovirus) [8]: 1.99 µg/mL; IC50 (µg/ml), pseudovirus neutralization [9]: 0.01 µg/mL; neutralization IC50 [10]: 26.4 µg/mL; IC50 (µg/ml), pseudovirus neutralization [11]: 0.51 µg/mL; IC50 (µg/ml), pseudovirus neutralization [12]: 10.6 µg/mL"
4838_L06 (PGT-121) (antibody),,> 50 µg/mL,> 50 µg/mL,28.4 µg/mL,0.005 µg/mL,0.386 µg/mL,0.387 µg/mL,0.004 µg/mL,> 50 µg/mL,,,,,,
4858_P08 (PGT-123) (antibody),0.0047 µg/mL,> 50 µg/mL,> 50 µg/mL,> 50 µg/mL,0.004 µg/mL,0.234 µg/mL,0.565 µg/mL,0.005 µg/mL,> 50 µg/mL,,,,,,Fold IC50 increase relative to wild-type (pseudovirus neutralization) [21]: 1.5 fold; Fold IC50 increase relative to wild-type [22]: 5.9 fold; Fold IC50 increase relative to wild-type (pseudovirus neutralization) [23]: 0.6 fold
4877_D15 (PGT-122) (antibody),0.0115 µg/mL,> 50 µg/mL,5.66 µg/mL,31.4 µg/mL,0.008 µg/mL,1.8 µg/mL,2.47 µg/mL,0.005 µg/mL,> 50 µg/mL,,,,,,
4970_K22 (PGT-144) (antibody),,,,,,,,,,> 50 µg/mL,44 µg/mL,9.85 µg/mL,> 50 µg/mL,0.236 µg/mL,
4980_N08 (PGT-143) (antibody),,,,,,,,,,17.3 µg/mL,25.9 µg/mL,0.153 µg/mL,10.2 µg/mL,0.085 µg/mL,
4993_K13 (PGT-141) (antibody),,,,,,,,,,> 50 µg/mL,20.3 µg/mL,0.371 µg/mL,1.28 µg/mL,0.033 µg/mL,
4995_E20 (PGT-142) (antibody),,,,,,,,,,5.86 µg/mL,15.1 µg/mL,0.174 µg/mL,4 µg/mL,0.038 µg/mL,
4995_P16 (PGT-145) (antibody),,,,,,,,,,0.032 µg/mL,1.05 µg/mL,0.025 µg/mL,0.136 µg/mL,0.12 µg/mL,
5141_B17 (PGT-126) (antibody),0.0093 µg/mL,> 50 µg/mL,> 50 µg/mL,> 50 µg/mL,0.007 µg/mL,0.078 µg/mL,0.006 µg/mL,0.021 µg/mL,> 50 µg/mL,,,,,,Fold IC50 increase relative to wild-type (pseudovirus neutralization) [21]: 1.1 fold; Fold IC50 increase relative to wild-type (pseudovirus neutralization) [23]: 1.4 fold; Fold IC50 increase relative to wild-type [29]: > 250 fold
